This is an account of results in PMC8291550.

The target of this test is rat skeletal muscle sodium channel rNaV1.4 (UniProt P15390). Put plainly: washing-out time-course analysis (electrophysiology). The following applies: read off a plot.
UniProt P15390, sequence (P15390 whole entry): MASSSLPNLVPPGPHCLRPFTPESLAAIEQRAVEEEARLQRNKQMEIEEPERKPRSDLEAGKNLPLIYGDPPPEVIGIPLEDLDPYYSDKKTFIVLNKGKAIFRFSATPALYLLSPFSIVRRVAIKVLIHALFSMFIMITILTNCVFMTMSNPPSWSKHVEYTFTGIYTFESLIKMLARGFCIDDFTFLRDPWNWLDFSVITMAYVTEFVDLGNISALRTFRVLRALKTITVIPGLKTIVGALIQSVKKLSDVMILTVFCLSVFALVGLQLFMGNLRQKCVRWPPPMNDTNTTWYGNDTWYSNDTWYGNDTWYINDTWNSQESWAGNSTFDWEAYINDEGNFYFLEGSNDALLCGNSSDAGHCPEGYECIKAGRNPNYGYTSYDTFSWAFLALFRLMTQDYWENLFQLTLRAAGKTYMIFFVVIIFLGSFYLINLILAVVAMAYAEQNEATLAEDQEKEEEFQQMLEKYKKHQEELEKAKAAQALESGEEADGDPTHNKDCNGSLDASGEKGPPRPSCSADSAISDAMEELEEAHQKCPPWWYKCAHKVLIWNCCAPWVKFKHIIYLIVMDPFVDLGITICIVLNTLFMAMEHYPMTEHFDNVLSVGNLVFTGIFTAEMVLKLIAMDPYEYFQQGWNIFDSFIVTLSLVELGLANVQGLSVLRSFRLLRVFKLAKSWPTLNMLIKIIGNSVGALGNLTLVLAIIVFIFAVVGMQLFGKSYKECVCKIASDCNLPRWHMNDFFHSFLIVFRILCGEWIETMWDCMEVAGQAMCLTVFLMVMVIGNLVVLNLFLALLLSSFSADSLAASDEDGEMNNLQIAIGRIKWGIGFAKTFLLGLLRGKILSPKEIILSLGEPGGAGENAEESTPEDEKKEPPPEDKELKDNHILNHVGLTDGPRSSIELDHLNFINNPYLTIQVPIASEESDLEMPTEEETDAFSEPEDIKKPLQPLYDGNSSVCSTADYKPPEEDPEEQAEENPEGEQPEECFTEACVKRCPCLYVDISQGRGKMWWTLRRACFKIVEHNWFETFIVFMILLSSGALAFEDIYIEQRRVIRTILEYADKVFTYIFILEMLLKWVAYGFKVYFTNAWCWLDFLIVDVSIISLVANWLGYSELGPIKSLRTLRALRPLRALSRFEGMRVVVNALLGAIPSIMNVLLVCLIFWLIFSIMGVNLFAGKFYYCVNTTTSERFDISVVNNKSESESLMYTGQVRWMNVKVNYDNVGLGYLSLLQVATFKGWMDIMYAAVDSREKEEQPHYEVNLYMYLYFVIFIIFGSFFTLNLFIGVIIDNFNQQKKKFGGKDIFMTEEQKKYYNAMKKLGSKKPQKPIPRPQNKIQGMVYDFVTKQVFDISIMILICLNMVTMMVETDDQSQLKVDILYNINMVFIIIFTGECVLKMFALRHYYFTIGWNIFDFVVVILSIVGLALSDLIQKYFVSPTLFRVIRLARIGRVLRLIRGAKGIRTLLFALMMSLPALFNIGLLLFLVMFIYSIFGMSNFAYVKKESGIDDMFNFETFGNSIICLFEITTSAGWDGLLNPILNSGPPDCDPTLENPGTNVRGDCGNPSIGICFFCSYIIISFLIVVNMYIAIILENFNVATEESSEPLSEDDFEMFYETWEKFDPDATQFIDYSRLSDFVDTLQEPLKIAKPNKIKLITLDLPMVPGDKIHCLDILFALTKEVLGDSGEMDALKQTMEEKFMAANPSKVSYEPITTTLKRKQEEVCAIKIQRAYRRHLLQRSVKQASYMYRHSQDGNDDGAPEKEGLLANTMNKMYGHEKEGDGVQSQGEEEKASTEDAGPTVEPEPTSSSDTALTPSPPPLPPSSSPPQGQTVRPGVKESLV
Take BmK-M9 K62G: the other: τoff amounted to 8.5 s. Turning to BmK-M9 K24G, the other: τoff was 1800 s. Turning to BmK-M9 Y42G, the other: τoff came out at 17 s.

Substance BmK-M9 D53G gave an other: τoff of 1700 s. In the case of BmK-M9 E32G it was 1800 s; in that of BmK-M9 D28G, 1800 s; in that of BmK-M9 H15G, 1500 s. In the case of BmK-M9 D3G it was 1900 s; in that of BmK-M9 R2G, 1300 s; in that of BmK-M9 K8G, 1700 s.

BmK-M9 E20G displayed an other: τoff of 1600 s. The same measure for BmK-M9 E10G: 1700 s. In the case of BmK-M9 R58G it was 2000 s; in that of BmK-M9 R41G, 1700 s; in that of BmK-M9 K50G, 1600 s. In turn, BmK-M9 R54G returned an other: τoff of 1800 s. In the case of BmK-M9 H64G it was 1800 s.
